Laboratory results as given in patent US20240190950A1, “METHOD OF TREATING DISEASES USING GREMLIN1 ANTAGONISTS” (SHANGHAI JIAO TONG UNIVERSITY, priority 2021, published 2024).

Experiments:
[1] = tested on: FGFR1/MEK/ERK signaling pathway; experiment: FGFR1/MEK/ERK phosphorylation in PCa cell lines (immunoblotting); assay type: cell-based, human
Protocol: In order to test whether Gremlin1 promoted the FGFR-MAPK signaling, we first performed analysis of the expression levels of the four FGFRs in CRPC patients. […] We treated LNCaP and PC3 with GREM1 in different concentrations (1 ng/ml, 10 ng/ml, 100 ng/ml) and examined phosphorylation levels of FGFR1, MEK and ERK.
(§1) MAPK signaling can be activated through many membrane receptors besides FGFR. To test whether the activation of MAPK pathway by GREM1 was via FGFR, we constructed a FGFR1 knockout LNCaP subline by the CRISPR/Cas9 method. […] To further test whether the tumor promoting effect of GREM1 was through FGFR, we utilized small molecule inhibitors of FGFR or EGFR.
14E3 was tested to target GREM1 in human PCa.

[2] = tested on: LNCaP cells; experiment: GREM1-promoted PCa cell proliferation and sphere formation with FGFR1/MEK inhibitors or BMP4; assay type: cell-based, human
Text: as §1

[3] = biological target: FGFR1 (Homo sapiens, UniProt P11362); experiment: ELISA binding of DAN family proteins to FGFR1
[4] = tested on: PC3 cells; experiment: Sphere formation, proliferation and apoptosis of PC3 cells; assay type: cell-based, human; conditions: 100 ng/ml GREM1 protein in culture medium
Text: Metastatic prostate cancer is a devastating disease and most cancers progress upon serial treatments with either androgen receptor antagonist or chemotherapy. One of the key cell types resistant to these treatments are cells with stem cells like property which has the capability of forming tumor spheres in suspension culture. To explore the role of GREM1 in the progression of CRPC, we utilized AR independent CRPC cell line PC3, as well as the AR dependent PCa cell line LNCaP and LAPC4. We generated cell sublines with loss or gain of GREM1 expression (FIGS. 3A, 4A and 5A).
14E3 was tested to target GREM1 in human PCa. The affinity and specificity of this antibody to hGREM1 was verified by ELISA (FIG. 12A). […] This antibody potentiated the anti-tumor effect of Enzalutamide in AR dependent LNCaP cells (FIG. 12B, 12C, 10K, 10L).

[5] = tested on: PC-3 cells; experiment: Scratch migration assay of PC-3 cells; assay type: cell-based, human; conditions: 1 μg/ml Gremlin, 3 days
Protocol: PC-3 cells at log-growth phase were harvested and re-suspended in cell culture medium (DMEM medium supplied with 10% FBS). Cells were non-treated or treated with 1 μg/ml Gremlin or 10 μg/ml 14E3 or 10 μg/ml control mIgG2a for 3 days. Then cells were planted at 10^5 cells/well in 6-well cell culture plate. After cells reached 100% coverage of the bottom of wells, the medium was changed to serum free medium. Each well was made with one scratch using 200 μl-tip. The migration rate of cells were analyzed by calculating the area of cells growing on the scratch using Image J software.

[6] = tested on: LNCaP-PSA cells; experiment: LNCaP-PSA reporter cell assay (PSA-low population, flow cytometry); assay type: cell-based, human; conditions: dose dependent; day 7
Text: In order to assess the role of gremlin1 in modulating tumor prostate cell growth, we tested the antibodies provided herein in an assay involving prostate cancer cell LNCaP. This cell line was transfected with a PSA promoter driven GFP expression lentivirus plasmid. PSA is known as a differentiated marker of prostate cell and prostate cancer cells with low level of PSA represent poorly differentiated or undifferentiated prostate cancer cells. These cells usually have stem cell like property and have more aggressive growth property. The LNCaP reporter cell assay is briefly described below.
LNCaP-PSA cells were plated in 24-well plates at 10000/well in RPMI 1640/10% FBS (GIBCO), 1% P/S (complete media) and incubated at 37° ° C. and 5% CO2 overnight. The next day, remove media, 1 ug/ml human gremlin (ACRO) or human gremlin with serially diluted antibodies were added to the cells. Change medium every three days. On day 7, remove media from the wells, wash with PBS twice, run flow cytometer (Bechman) using FITC channel.

FGFR1, sequence (P11362 3-822 limits assumed): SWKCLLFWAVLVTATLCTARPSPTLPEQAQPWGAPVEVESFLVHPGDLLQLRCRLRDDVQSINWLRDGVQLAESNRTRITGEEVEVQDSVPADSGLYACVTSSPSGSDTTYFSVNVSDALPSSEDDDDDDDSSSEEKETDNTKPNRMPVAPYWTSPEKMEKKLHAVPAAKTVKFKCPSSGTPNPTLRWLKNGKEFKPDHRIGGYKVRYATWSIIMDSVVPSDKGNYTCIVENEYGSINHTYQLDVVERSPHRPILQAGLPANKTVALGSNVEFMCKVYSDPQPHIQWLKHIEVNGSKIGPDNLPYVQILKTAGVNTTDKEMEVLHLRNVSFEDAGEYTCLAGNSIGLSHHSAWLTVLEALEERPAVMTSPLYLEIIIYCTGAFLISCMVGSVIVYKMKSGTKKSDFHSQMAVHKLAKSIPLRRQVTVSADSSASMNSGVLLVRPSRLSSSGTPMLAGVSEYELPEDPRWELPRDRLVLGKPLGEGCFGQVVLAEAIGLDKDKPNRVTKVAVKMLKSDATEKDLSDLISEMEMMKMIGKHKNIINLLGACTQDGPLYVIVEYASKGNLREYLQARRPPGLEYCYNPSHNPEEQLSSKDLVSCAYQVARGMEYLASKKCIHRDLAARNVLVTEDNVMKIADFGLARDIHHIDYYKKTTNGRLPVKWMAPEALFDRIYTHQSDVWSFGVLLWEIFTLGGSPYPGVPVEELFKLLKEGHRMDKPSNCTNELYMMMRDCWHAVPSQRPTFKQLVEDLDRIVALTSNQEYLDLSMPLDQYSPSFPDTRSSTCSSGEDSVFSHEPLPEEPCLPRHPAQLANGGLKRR

Row | binding to FGFR1 [3] | Molecule | phosphorylation levels of FGFR1, MEK1/2 and ERK1/2 following GREM1 stimulation on addition of BMP4 ([1]; BMP4 20 ng/ml, PC3 and LNCaP-resistance cells) | proliferation promoting role of GREM1 [2] | sphere-formation promoting role of GREM1 [2] | cell proliferation [4] | sphere formation [4] | time MAPK activation was maintained at a high level ([1]; Gremlin1 100 ng/ml, PC3 and LNCaP cells) | p-FGFR1, p-MEK1/2 and p-ERK1/2 levels ([1]; LNCaP and PC3, 1 ng/ml, 10 ng/ml, 100 ng/ml, dose dependent) | cell migration of prostate cancer cells [5] | percentage of the PSA-low LNCaP population [6]
1 |  | BMP4: BMP ligand added to cells (protein, UniProt P12644 293-408, looked up) Bone morphogenetic protein 4: SPKHHSQRARKKNKNCRRHSLYVDFSDVGWNDWIVAPPGYQAFYCHGDCPFPLADHLNSTNHAIVQTLVNSVNSSIPKACCVPTELSAISMLYLDEYDKVVLKNYQEMVVEGCGCR | did not alter | not affected | not affected |  |  |  |  |  | 
2 | binds | GREM1: gremlin1 protein, secreted BMP antagonist of the DAN family, added exogenously or immobilized (protein) KKKGSQGAIPPPDKAQHNDSEQTQSPQQPGSRNRGRGQGRGTAMPGEEVLESSQEALHVTERKYLKRDWCKTQPLKQTIHEEGCNSRTIINRFCYGQCNSFYIPRHIRKEEGSFQSCSFCKPKKFTTMMVTLNCPELQPPTKKKRVTRVKQCRCISIDLD |  |  |  | significant elevation | significant elevation | up to 1 hour | increase | accelerated | increased
